The source of these data is patent US20180282404A1 (Hoffmann-La Roche, published 2018).

Where only a bound is given, the exact number is not on record here.

Test [1] deals with T1, Human angiopoietin-2 (ANG-2) with His-tag (human, UniProt O15123 19-496).
T1 construct: The assays used full-length Angiopoietin-2-His, either R&D Systems #623-AN or in-house material; also called hANG-2; hAng-2
T1 sequence: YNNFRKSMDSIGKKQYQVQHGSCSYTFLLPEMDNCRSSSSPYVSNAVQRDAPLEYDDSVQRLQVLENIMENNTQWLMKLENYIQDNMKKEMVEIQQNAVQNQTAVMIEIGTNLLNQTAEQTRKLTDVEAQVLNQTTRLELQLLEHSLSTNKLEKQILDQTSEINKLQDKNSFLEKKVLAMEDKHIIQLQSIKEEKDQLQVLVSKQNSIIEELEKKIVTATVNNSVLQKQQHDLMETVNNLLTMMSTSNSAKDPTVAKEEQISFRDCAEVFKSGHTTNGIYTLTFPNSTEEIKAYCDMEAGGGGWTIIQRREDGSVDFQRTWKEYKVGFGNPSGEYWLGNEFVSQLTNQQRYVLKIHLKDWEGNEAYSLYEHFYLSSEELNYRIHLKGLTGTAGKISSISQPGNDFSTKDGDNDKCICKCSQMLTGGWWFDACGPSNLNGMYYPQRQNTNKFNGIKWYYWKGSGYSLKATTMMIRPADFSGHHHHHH
The test is described as follows: Biacore SPR, antibody captured by anti-Fc, ANG-2-His in solution, 1:1 model, Experiment 1. How it is done:
(§1) Biacore® T100 Evaluation Software version 1.1.1 was used for analysis of sensorgrams and for calculation of affinity data.
(§2) The affinity for this interaction is determined with the assumption of a 1:1 interaction. Details of this experiment can be found in the general methods section.
For orientation: SPR reads the build-up and loss of mass on a sensor chip optically.

Test [2] has as its target T1, Human angiopoietin-2 (ANG-2) with …. The test is described as follows: cell-based or functional assay.
Test [3] has the same target. Put plainly: ANGPT2/Tie2 interaction ELISA: antibody titrated with 0.2 ug/ml huAngiopoietin-2 on coated Tie2 (printed as 'inhibitory concentrations'). How it is done:
The interaction ELISA was performed on 384 well microtiter plates (MicroCoat, DE, Cat. No. 464718) at RT. After each incubation step plates were washed 3 times with PBST. ELISA plates were coated with 0.5 μg/ml Tie-2 protein (R&D Systems, UK, Cat. No. 313-TI) for at least 2 hours (h). Thereafter the wells were blocked with PBS supplemented with 0.2% Tween® 20 and 2% BSA (Roche Diagnostics GmbH, DE) for 1 h. […] After washing a mixture of 0.5 μg/ml biotinylated anti-Angiopoietin-2 clone BAM0981 (R&D Systems, UK) and 1:3000 diluted streptavidin HRP (Roche Diagnostics GmbH, DE, Cat. No. 11089153001) was added for 1 h. Thereafter the plates were washed 6 times with PBST. Plates were developed with freshly prepared ABTS reagent (Roche Diagnostics GmbH, DE, buffer #204 530 001, tablets #11 112 422 001) for 30 minutes at RT. Absorbance was measured at 405 nm.
(§3) 384-well Maxisorp® plates (Nunc) were coated with 0.5 μg/ml human Tie2 (R&D Systems, UK, Cat. No. 313-TI or in house produced material) for 2 h at room temperature and blocked with PBS supplemented with 0.2% Tween® 20 and 2% BSA (Roche Diagnostics GmbH, DE) for 1 h at room temperature under shaking. […] After washing a mixture of 0.5 μg/ml biotinylated anti-Angiopoietin-1/2 clone (R&D Systems #BAF923, BAM0981 R&D Systems, UK) and 1:3000 diluted streptavidin HRP (Roche Diagnostics GmbH, DE, Cat. No. 11089153001) was added for 1 h. Thereafter the plates were washed 6 times with PBST. Plates were developed with freshly prepared ABTS reagent (Roche Diagnostics GmbH, DE, buffer #204 530 001, tablets #11 112 422 001) for 30 minutes at RT. Absorbance was measured at 405 nm.
(ELISA stands for enzyme-linked immunosorbent assay.)

Test [4] concerns the target T2, Human angiopoietin-1 (ANG-1) with His-tag (human, UniProt Q15389 16-498).
T2 construct: The assays used Angiopoietin-1-His, either R&D Systems #923-AN or in-house material; also called hANG-1; huAng-1
T2 sequence: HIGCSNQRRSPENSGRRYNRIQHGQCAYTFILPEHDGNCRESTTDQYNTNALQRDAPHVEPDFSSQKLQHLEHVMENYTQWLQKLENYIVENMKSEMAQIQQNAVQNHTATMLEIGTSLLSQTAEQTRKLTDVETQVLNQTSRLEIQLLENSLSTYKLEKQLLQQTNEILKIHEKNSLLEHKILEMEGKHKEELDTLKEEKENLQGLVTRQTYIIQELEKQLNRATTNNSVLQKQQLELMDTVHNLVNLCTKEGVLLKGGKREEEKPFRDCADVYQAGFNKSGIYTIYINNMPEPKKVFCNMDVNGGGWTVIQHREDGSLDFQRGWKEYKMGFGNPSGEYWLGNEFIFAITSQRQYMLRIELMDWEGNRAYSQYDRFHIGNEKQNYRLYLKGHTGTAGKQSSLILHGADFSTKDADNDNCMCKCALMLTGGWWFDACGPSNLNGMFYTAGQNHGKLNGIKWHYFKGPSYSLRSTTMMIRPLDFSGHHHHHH
The test is described as follows: ANG-1 binding ELISA, human ANG-1 coated, antibody titrated. Here is the method: (§4) The wells were washed three times with 300 μl PBST (0.2% Tween® 20) and blocked with 200 μl 2% BSA 0.1% Tween® 20 for 30 min at room temperature and subsequently washed three times with 300 μl PBST. […] The wells were washed three times with 300 μl PBST (0.2% Tween® 20) and bound antibody was detected with 100 μL/well 0.1 μg/ml F(ab′) POD (Biozol Cat. No. 206005) in 2% BSA 0.1% Tween® 20 as detection antibody for 1 h on a microtiterplate shaker at room temperature. Unbound detection antibody was washed away three times with 300 μL/well PBST and the bound detection antibody was detected by addition of 100 μL ABTS/well. Determination of absorbance was performed on a Tecan Fluor Spectrometer at a measurement wavelength of 405 nm (reference wavelength 492 nm).
(§5) Briefly, the ELISA-type assay is based on the immobilization of human wild-type Angiopoietin-1 or -2 in a microtiter plate.

For test [5], the target named is T1, Human angiopoietin-2 (ANG-2) with …. The test is described as follows: Biacore SPR, antibody captured by anti-Fc, ANG-2-His in solution, 1:1 model, Experiment 2. How it is done:
as §1, §2

Test [6] shares this target. The test is described as follows: ANG-2 binding ELISA, human ANG-2 coated, antibody titrated. Here is the method:
as §4, §5

For test [7] the target is unchanged. The test is described as follows: Biacore SPR, antibody captured by anti-Fc, ANG-2-His in solution, 1:1 model, average of Experiments 1 + 2. How it is done: as §1, §2
For test [8], the target named is T2, Human angiopoietin-1 (ANG-1) with …. Put plainly: cell-based or functional assay.
Test [9] has the same target. The test is described as follows: ANGPT1/Tie2 interaction ELISA: antibody titrated with 0.2 ug/ml huAngiopoietin-1 on coated Tie2 (printed as 'inhibitory concentrations'). How it is done:
After each incubation step plates were washed 3 times with PBST. […] Thereafter the wells were blocked with PBS supplemented with 0.2% Tween® 20 and 2% BSA (Roche Diagnostics GmbH, DE) for 1 h. […] Thereafter the plates were washed 6 times with PBST. Plates were developed with freshly prepared ABTS reagent (Roche Diagnostics GmbH, DE, buffer #204 530 001, tablets #11 112 422 001) for 30 minutes at RT. Absorbance was measured at 405 nm.
as §3

For test [10] the target is unchanged. The test is described as follows: SPR (Biacore): huAng-1 amine-coupled on a CM5 chip (appr. 20000 RU), BSA on the reference cell, antibody 100 nM in HBS-P injected for 3 min, 3 min dissociation. How it is done: The protein was injected for 20 min in sodium acetate pH 4.5 at 10 μg/ml at a flow rate of 5 μl/min. […] On the reference flow cell BSA was immobilized under the same conditions. The antibodies were diluted in HBS-P to 100 nM and injected for 3 min (association phase). After washing with running buffer for 3 min (dissociation phase), the surface was regenerated by injecting 10 mM sodium hydroxide for 1 min at 5 μl/min.

B1: <ANG-2> Ang2i_LC06 (antibody, V domains shown)
VH: not shown
VL: QPGLTQPPSVSVAPGQTARITCGGNNIGSKSVHWYQQKPGQAPVLVVYDDSDRPSGIPERFSGSNSGNTATLTISRVEAGDEADYYCQVWDSSSDHYVFGTGTKVTVLG
notes: Only the variable domains are tied to this antibody
Usually Kd stands for the equilibrium constant for the complex coming apart. Broadly, the koff is the rate constant with which the complex falls apart. The term IC50 denotes the midpoint of a concentration-inhibition curve. As usually defined, the EC50 is the concentration needed to bring the measured effect to its halfway point. As to B1, the Kd came out at 11 pM in test [1], 21 pM in [5] and 16 pM in test [7]. Moreover, the off-rate constant (koff) in test [1] is 7.16e-05 s⁻¹; in test [5] it was 0.000114 s⁻¹. The “IC50 of ANGPT2 stimulated Tie2 phosphorylation (HEK293-Tie2 clone22, P-Tie2 sandwich ELISA)” value in test [2] was approximately 0.508 µg/mL. Further, the IC50 in test [3] turned out to be 100 pM. Besides, the concentration for a half-maximal effect (EC50) in test [4] was more than 8 µg/mL; in test [6] it was 0.084 µg/mL.

B2: human anti-ANG-2 antibody <ANG-2> antibody Mab536 (antibody, V domains shown)
VH: EVQLVQSGGGVVQPGRSLRLSCAASGFTFSSYGMHWVRQAPGKGLEWVSYISSSGSTIYYADSVKGRFTISRDNAKNSLYLQMNSLRAEDTAVYYCARDLLDYDILTGYGYWGQGTLVTVSS
VL: not shown
As to B2, the Kd in test [1], in test [5] and in test [7] was 29 pM in each case. The koff in [1] was found to be 0.000144 s⁻¹; in test [5], 0.000125 s⁻¹. Also, in [3], the IC50 came to 150 pM. For the same molecule, the half-maximal effective concentration (EC50) in [4] worked out at 2.54 µg/mL; in test [6], 0.133 µg/mL.

B3: <ANG-2> Ang2k_LC08 (antibody, V domains shown)
VH: QVQLVESGGGVVQPGGSLRLSCAASGFTFSSYGMHWVRQAPGKGLEWVAVISYDGSNKYYADSVKGRFTISRDNSKNTLYLQMNSLRAEDTAVYYCAKPTLDIYMGYYYGMDVWGQGTTVTVSS
VL: QPVLTQPPSASGAPGQRVTISCSGFASNIGSNSVNWYQQVPGTAPKLLIYNNDQRPSGVPDRFSGSRSGTSASLAISGLQSEDEADYYCAAWDDSLNGPVFGGGTKLTVLG
notes: as for B1
As to B3, the figures for the Kd in test [1], in test [5] and in test [7] were 16 pM, 27 pM and 22 pM, respectively. The koff in test [1] was determined as 0.000161 s⁻¹; in test [5], 0.000228 s⁻¹. Further, the “IC50 of ANGPT1 stimulated Tie2 phosphorylation (HEK293-Tie2 clone22, P-Tie2 sandwich ELISA)” value in test [8] is approximately 0.391 µg/mL. For the same molecule, the “IC50 of ANGPT2 stimulated Tie2 phosphorylation (HEK293-Tie2 clone22, P-Tie2 sandwich ELISA)” value in test [2] is approximately 0.499 µg/mL. In addition, the values for the IC50 in [3] and in test [9] were 170 pM and 11000 pM, respectively. The EC50 in test [4] stood at 4.04 µg/mL; in [6], 0.105 µg/mL.

B4: <ANG-2> Ang2i_LC10 (antibody, V domains shown)
VH: not shown
VL: QPPSVSVAPGQTARITCGGNNIGSKSVHWYQQKPGQAPVLVVYDDSDRPSGIPERFSGSNSGNTATLTISRVEAGDEADYYCQVWDSSSDHWVFGGGTKLTVLG
In the case of B4, in test [10], the binding result is “no binding (tested: 100 nM)”.

B5: <ANG-2> Ang2i_LC07 (antibody, V domains shown)
VH: not shown
VL: QPVLTQSPSVSVAPGETARVACGGNFIGGKSVHWYQQKPGQAPVLVIYDDSERPSGIPERISGSNSGNTATLIITRAEAGDEADYHCQVWDSDSDQGVFGTGTKLTVLG
notes: as for B1
For the molecule B5, the results for the EC50 in test [4] and in [6] were more than 8 µg/mL and 3.01 µg/mL, respectively.
